# Data: patent WO2025083273A1 (dated 2025)
# B1: VHg5/VLg1 (antibody, human IgG1, V domains shown)
# VH: QVQLQQSGGGLVQAGGSLRLSCAASGFTFTSYAMSWVRQAPGKGLEWVATISDGDSYSYFPDSVKDRFIISRDNAKNSLFLQMNSLRAEDTAVYYCARDRIYGSVQYYAMDYWGRGTLVTVSS
# VL: DVVMTQSPDSLAVSLGERATINCRASESVEFSGTSLMQWYQQKPGQPPKLLIYAASNVESGVPDRFSGSGSGTDFTLTISSLQAEDVVVYYCQQSRKLPYTFGGGTKVEIK
# B2: VHg5/VLg4 (antibody, human IgG1, V domains shown)
# VH: QVQLQQSGGGLVQAGGSLRLSCAASGFTFTSYAMSWVRQAPGKGLEWVATISDGDSYSYFPDSVKDRFIISRDNAKNSLFLQMNSLRAEDTAVYYCARDRIYGSVQYYAMDYWGRGTLVTVSS
# VL: DVVMTQSPDSLAVSLGERATISCRASESVEFSGTSLMQWYQQKPRQPLKLLIYAASNVESGVPDRFSGSGSGTDFTLTISSLQAEDVAVYYCQQSRKLPYTFGQGTRLEIK
# B3: VHg5/VLg6 (antibody, human IgG1, V domains shown)
# VH: QVQLQQSGGGLVQAGGSLRLSCAASGFTFTSYAMSWVRQAPGKGLEWVATISDGDSYSYFPDSVKDRFIISRDNAKNSLFLQMNSLRAEDTAVYYCARDRIYGSVQYYAMDYWGRGTLVTVSS
# VL: DVVMTQSPPSLPVTPGEPASISCRASESVEFSGTSLMQWYLQKPGQSPQVLIYAASNVESGVPDRFSGSGSGTDFTLKISRVEAEDVGVYYCQQSRKLPYTFGQGTRLEIK
# B4: VHg10/VLg13 (antibody, human IgG1, V domains shown)
# VH: EVQLVESGGGLVQPGGSLRLSCAASGFTFSSYAMSWVRQAPGKGLEWVSTISDGDSYSYFPDSVKDRFTISRDNSKNTLYLQMNSLRAEDTAVYYCARDRIYGSVQYYAMDYWGQGTLVTVSS
# VL: DIQMTQSPSSLSASVGDRVTITCRASESVEFSGTSLMQWYQQKPGKAPKLLIYAASNVESGVPSRFSGSGSGTDFTFTISSLQPEDIATYYCQQSRKLPYTFGQGTKLEIK
# B5: VHg1/VLg13 (antibody, human IgG1, V domains shown)
# VH: QVQLVQSGGGLVQPGGSLRLSCAASGFTFSSYAMSWVRQAPGKGLEWVSTISDGDSYSYFPDSVKDRFTISRDNSKNTLYLQMNSLRAEDTSVYYCARDRIYGSVQYYAMDYWGQGTLVTVSS
# VL: DIQMTQSPSSLSASVGDRVTITCRASESVEFSGTSLMQWYQQKPGKAPKLLIYAASNVESGVPSRFSGSGSGTDFTFTISSLQPEDIATYYCQQSRKLPYTFGQGTKLEIK
# B6: VHg1/VLg6 (antibody, human IgG1, V domains shown)
# VH: QVQLVQSGGGLVQPGGSLRLSCAASGFTFSSYAMSWVRQAPGKGLEWVSTISDGDSYSYFPDSVKDRFTISRDNSKNTLYLQMNSLRAEDTSVYYCARDRIYGSVQYYAMDYWGQGTLVTVSS
# VL: DVVMTQSPPSLPVTPGEPASISCRASESVEFSGTSLMQWYLQKPGQSPQVLIYAASNVESGVPDRFSGSGSGTDFTLKISRVEAEDVGVYYCQQSRKLPYTFGQGTRLEIK
# B7: VHg1/VLg1 (antibody, human IgG1, V domains shown)
# VH: QVQLVQSGGGLVQPGGSLRLSCAASGFTFSSYAMSWVRQAPGKGLEWVSTISDGDSYSYFPDSVKDRFTISRDNSKNTLYLQMNSLRAEDTSVYYCARDRIYGSVQYYAMDYWGQGTLVTVSS
# VL: DVVMTQSPDSLAVSLGERATINCRASESVEFSGTSLMQWYQQKPGQPPKLLIYAASNVESGVPDRFSGSGSGTDFTLTISSLQAEDVVVYYCQQSRKLPYTFGGGTKVEIK
# B8: VHg6/VLg5 (antibody, human IgG1, V domains shown)
# VH: QVQLQQSGGGLVQPGGSLRLSCAASGFTFSSYAMSWVRQAPGKGLEWVATISDGDSYSYFPDSVKDRFTISRDNARNSLYLQMNSLRAEDTAVYYCARDRIYGSVQYYAMDYWGRGTLVTVSS
# VL: EIVLTQSPGTLSLSPGERGTLSCRASESVEFSGTSLMQWYQQKPGQAPRLLIYAASNVESGIPDRFSGSGSETDFTLTISRLEPEDLAVYYCQQSRKLPYTFGQGTRLEIK
# B9: VHg9/VLg4 (antibody, human IgG1, V domains shown)
# VH: EVQLVESGGGLVKPGGSLRLSCAASGFTFSSYAMSWVRQAPGKGLEWVSTISDGDSYSYFPDSVKDRFTISRDNAKNSLYLQMNSLRAEDTAVYYCARDRIYGSVQYYAMDYWGQGTLVTVSS
# VL: DVVMTQSPDSLAVSLGERATISCRASESVEFSGTSLMQWYQQKPRQPLKLLIYAASNVESGVPDRFSGSGSGTDFTLTISSLQAEDVAVYYCQQSRKLPYTFGQGTRLEIK
# B10: VHg10/VLg2 (antibody, human IgG1, V domains shown)
# VH: EVQLVESGGGLVQPGGSLRLSCAASGFTFSSYAMSWVRQAPGKGLEWVSTISDGDSYSYFPDSVKDRFTISRDNSKNTLYLQMNSLRAEDTAVYYCARDRIYGSVQYYAMDYWGQGTLVTVSS
# VL: DIQLTQSPSSLSASVGDRVTITCRASESVEFSGTSLMQWYQQKAGLAPKLLIYAASNVESGVPSRFSGSGSGTDFTLTISSLQPEDFGTYYCQQSRKLPYTFGQGTRLEIK
# B11: VHg10/mVL (antibody, human IgG1, V domains shown)
# VH: EVQLVESGGGLVQPGGSLRLSCAASGFTFSSYAMSWVRQAPGKGLEWVSTISDGDSYSYFPDSVKDRFTISRDNSKNTLYLQMNSLRAEDTAVYYCARDRIYGSVQYYAMDYWGQGTLVTVSS
# VL: DIVLTQSPASLAVSLGQRATISCRASESVEFSGTSLMQWYQQRPGLPPKLLIYAASNVESGVPARFSGSGSGTDFSLNIHPVEEDDIAMYFCQQSRKLPYTFGGGTKLEIN
# B12: VHg3/VLg2 (antibody, human IgG1, V domains shown)
# VH: EVQLVQSGGGLVKPGGSLRLSCAASGFKFSSYAMSWVRQAPGKGLEWLSTISDGDSYSYFPDSVKDRFIISRDNAKNSLYLQMNSLRVEDTGVYYCARDRIYGSVQYYAMDYWGQGTLVTVSS
# VL: DIQLTQSPSSLSASVGDRVTITCRASESVEFSGTSLMQWYQQKAGLAPKLLIYAASNVESGVPSRFSGSGSGTDFTLTISSLQPEDFGTYYCQQSRKLPYTFGQGTRLEIK
# B13: VHg2/VLg1 (antibody, human IgG1, V domains shown)
# VH: QMQLVQSGGGLVKPGGSLRLSCAASGFTFSSYAMSWIRQAPGKGLEWVSTISDGDSYSYFPDSVKDRFTISRDNAKNSLYLQMNSLRAEDTAVYYCTRDRIYGSVQYYAMDYWGRGTLVTVSS
# VL: DVVMTQSPDSLAVSLGERATINCRASESVEFSGTSLMQWYQQKPGQPPKLLIYAASNVESGVPDRFSGSGSGTDFTLTISSLQAEDVVVYYCQQSRKLPYTFGGGTKVEIK
# B14: VHg3/VLg6 (antibody, human IgG1, V domains shown)
# VH: EVQLVQSGGGLVKPGGSLRLSCAASGFKFSSYAMSWVRQAPGKGLEWLSTISDGDSYSYFPDSVKDRFIISRDNAKNSLYLQMNSLRVEDTGVYYCARDRIYGSVQYYAMDYWGQGTLVTVSS
# VL: DVVMTQSPPSLPVTPGEPASISCRASESVEFSGTSLMQWYLQKPGQSPQVLIYAASNVESGVPDRFSGSGSGTDFTLKISRVEAEDVGVYYCQQSRKLPYTFGQGTRLEIK
# B15: VHg9/VLg2 (antibody, human IgG1, V domains shown)
# VH: EVQLVESGGGLVKPGGSLRLSCAASGFTFSSYAMSWVRQAPGKGLEWVSTISDGDSYSYFPDSVKDRFTISRDNAKNSLYLQMNSLRAEDTAVYYCARDRIYGSVQYYAMDYWGQGTLVTVSS
# VL: DIQLTQSPSSLSASVGDRVTITCRASESVEFSGTSLMQWYQQKAGLAPKLLIYAASNVESGVPSRFSGSGSGTDFTLTISSLQPEDFGTYYCQQSRKLPYTFGQGTRLEIK
# B16: VHg2/VLg6 (antibody, human IgG1, V domains shown)
# VH: QMQLVQSGGGLVKPGGSLRLSCAASGFTFSSYAMSWIRQAPGKGLEWVSTISDGDSYSYFPDSVKDRFTISRDNAKNSLYLQMNSLRAEDTAVYYCTRDRIYGSVQYYAMDYWGRGTLVTVSS
# VL: DVVMTQSPPSLPVTPGEPASISCRASESVEFSGTSLMQWYLQKPGQSPQVLIYAASNVESGVPDRFSGSGSGTDFTLKISRVEAEDVGVYYCQQSRKLPYTFGQGTRLEIK
# B17: VHg9/VLg12 (antibody, human IgG1, V domains shown)
# VH: EVQLVESGGGLVKPGGSLRLSCAASGFTFSSYAMSWVRQAPGKGLEWVSTISDGDSYSYFPDSVKDRFTISRDNAKNSLYLQMNSLRAEDTAVYYCARDRIYGSVQYYAMDYWGQGTLVTVSS
# VL: EIVLTQSPATLSLSPGERATLSCRASESVEFSGTSLMQWYQQKPGQAPRLLIYAASNVESGIPARFSGSGSGTDFTLTISSLEPEDFAVYYCQQSRKLPYTFGQGTKLEIK
# B18: VHg3/mVL (antibody, human IgG1, V domains shown)
# VH: EVQLVQSGGGLVKPGGSLRLSCAASGFKFSSYAMSWVRQAPGKGLEWLSTISDGDSYSYFPDSVKDRFIISRDNAKNSLYLQMNSLRVEDTGVYYCARDRIYGSVQYYAMDYWGQGTLVTVSS
# VL: DIVLTQSPASLAVSLGQRATISCRASESVEFSGTSLMQWYQQRPGLPPKLLIYAASNVESGVPARFSGSGSGTDFSLNIHPVEEDDIAMYFCQQSRKLPYTFGGGTKLEIN
# B19: VHg6/VLg6 (antibody, human IgG1, V domains shown)
# VH: QVQLQQSGGGLVQPGGSLRLSCAASGFTFSSYAMSWVRQAPGKGLEWVATISDGDSYSYFPDSVKDRFTISRDNARNSLYLQMNSLRAEDTAVYYCARDRIYGSVQYYAMDYWGRGTLVTVSS
# VL: DVVMTQSPPSLPVTPGEPASISCRASESVEFSGTSLMQWYLQKPGQSPQVLIYAASNVESGVPDRFSGSGSGTDFTLKISRVEAEDVGVYYCQQSRKLPYTFGQGTRLEIK
# B20: VHg9/VLg5 (antibody, human IgG1, V domains shown)
# VH: EVQLVESGGGLVKPGGSLRLSCAASGFTFSSYAMSWVRQAPGKGLEWVSTISDGDSYSYFPDSVKDRFTISRDNAKNSLYLQMNSLRAEDTAVYYCARDRIYGSVQYYAMDYWGQGTLVTVSS
# VL: EIVLTQSPGTLSLSPGERGTLSCRASESVEFSGTSLMQWYQQKPGQAPRLLIYAASNVESGIPDRFSGSGSETDFTLTISRLEPEDLAVYYCQQSRKLPYTFGQGTRLEIK
# Molecular target: T1, human DR3 (TNFRSF25) expressed on cells (human, UniProt Q93038 25-417)
# T1 sequence: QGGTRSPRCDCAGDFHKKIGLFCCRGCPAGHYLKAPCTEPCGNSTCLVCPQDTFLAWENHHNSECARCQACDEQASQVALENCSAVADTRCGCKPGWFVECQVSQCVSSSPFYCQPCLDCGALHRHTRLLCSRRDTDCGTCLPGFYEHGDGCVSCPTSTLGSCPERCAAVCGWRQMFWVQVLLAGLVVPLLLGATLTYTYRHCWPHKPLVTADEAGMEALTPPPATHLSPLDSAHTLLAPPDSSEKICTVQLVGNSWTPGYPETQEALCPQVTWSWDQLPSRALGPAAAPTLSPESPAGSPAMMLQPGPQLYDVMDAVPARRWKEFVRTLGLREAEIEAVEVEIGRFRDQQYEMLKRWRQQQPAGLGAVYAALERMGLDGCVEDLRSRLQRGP
# Test: cell-based or functional assay
Molecule,"Signal (FLU), isotype control [FLU]",Signal (FLU)
R347 IgG (antibody),385000,–
B1,–,410000
B2,–,1.44e+06
B3,–,387000
B4,–,3.27e+06
B5,–,2.81e+06
B6,–,1.5e+06
B7,–,797000
B8,–,2.85e+06
B9,–,2.96e+06
B10,–,2.84e+06
B11,–,3.2e+06
B12,–,2.23e+06
B13,–,402000
B14,–,2.05e+06
B15,–,2.88e+06
B16,–,1.62e+06
B17,–,682000
B18,–,2.86e+06
B19,–,1.96e+06
B20,–,3.05e+06
